Test results published in patent US12473560 (FLAGSHIP PIONEERING INNOVATIONS VI, dated 2025).

Biological target: soluble G614 HexaPro spike ectodomain (SARS-CoV-2, UniProt P0DTC2 14-1208)

Row | Binder | Kd [nM]
1 | AB-1 full-length IgG1 (antibody, V domains shown) VH: EVQLEESGTVLARPGASVKMSCKASGYTFTTYWMHWIKQRPGQGLEWIGAIYPGNSDTQYNQKFKDKAKLTAVKSTSSAYMELSSLTNEDSAVYFCTREGIPQLLRTLDYWGQGTSVTVSS VL: DILMTQSPSSLSASLGERVSLTCRASQEISGYLSWLQEKPDGTIKRLIYAASTLDSGVPKRFSGSRSGSDYSLTISSLESEDFADYYCLQYLSYPWTFGGGTKLEIK | 0.389
2 | AB-2 full-length IgG1 (antibody, V domains shown) VH: EVQLEESGTVLARPGASVKMSCKASGYTFTTYWMHWIKQRPGQGLEWIGAIYPGNGDTNYNQKFKDKAKLTAVKSTSSAYMELSSLTNEDSAVYFCTREGIPQLLRTLDYWGQGTSVTVSS VL: DILMTQSPSSLSASLGERVSLTCRASQEISGYLSWLQEKPDGTIKRLIYAASTLDSGVPKRFSGSRSGSDYSLTISSLESEDFADYYCLQYLSYPWTFGGGTKLEIK | 1.69
3 | AB-8 full-length IgG1 (antibody, V domains shown) VH: EVQLEESGTVLARPGASVKMSCKASGYTFTTYWMHWIKQRPGQGLEWIGAIYPGNSDTIYNQKFKDKAKLTAVKSTSSAYMELSSLTNEDSAVYFCTREGIPQLLRTLDYWGQGTSVTVSS VL: DILMTQSPSSLSASLGERVSLTCRASQEISGYLSWLQEKPDGTIKRLIYAASTLDSGVPKRFSGSRSGSDYSLTISSLESEDFADYYCLQYLSYPWTFGGGTKLEIK | 1.73
4 | AB-6 full-length IgG1 (antibody, V domains shown) VH: EVQLEESGTVLARPGASVKMSCKASGYTFTSYWMHWIKQRPGQGLEWIGAIYPGNSDTNYNQKFKDKAKLTAVKSTSSAYMELSSLTNEDSAVYFCTREGIPQLTRTLDYWGQGTSVTVSS VL: DILMTQSPSSLSASLGERVSLTCRASQEISGYLSWLQEKPDGTIKRLIYAASTLDSGVPKRFSGSRSGSDYSLTISSLESEDFADYYCLQYLSYPWTFGGGTKLEIK | 0.628
5 | AB-5 full-length IgG1 (antibody, V domains shown) VH: EVQLEESGTVLARPGASVKMSCKASGYTFTSYWMHWIKQRPGQGLEWIGAIYPGNGDTNYNQKFKDKAKLTAVKSTSSAYMELSSLTNEDSAVYFCTREGIPQLLNTLDVWGQGTSVTVSS VL: DILMTQSPSSLSASLGERVSLTCRASQEISGYLSWLQEKPDGTIKRLIYAASTLDSGVPKRFSGSRSGSDYSLTISSLESEDFADYYCQQYLSYPWTFGGGTKLEIK | 2.09
6 | AB-9 full-length IgG1 (antibody, V domains shown) VH: EVQLEESGTVLARPGASVKMSCKASGYTFTSYWMHWIKQRPGQGLEWIGAIYPGNSDTNYNQKFKDKAKLTAVTSTSSAYMELSSLTNEDSAVYFCTREGIPQLLRTLDYWGQGTSVTVSS VL: DILMTQSPSSLSASLGERVSLTCRASQEISGYLSWLQEKPDGTIKRLIYAASTLDSGVPKRFSGSRSGSDYSLTISSLESEDFADYYCLQYLSYPWTFGGGTKLEIK | 1.2
7 | AB-4 full-length IgG1 (antibody, V domains shown) VH: EVQLEESGTVLARPGASVKMSCKASGYTFTTYWMHWIKQRPGQGLEWIGAIYPGNGDTNYNQKFKDKAKLTAVKSTSSAYMELSSLTNEDSAVYFCTREGIPQLLRTFDYWGQGTSVTVSS VL: DILMTQSPSSLSASLGERVSLTCRASQEIGGYLSWLQEKPDGTIKRLIYAASTLDSGVPKRFSGSRSGSDYSLTISSLESEDFADYYCLQYLSYPWTFGGGTKLEIK | 1.14
8 | AB-3 full-length IgG1 (antibody, V domains shown) VH: EVQLEESGTVLARPGASVKMSCKASGYTFTTYWMHWIKQRPGQGLEWIGAIYPGNGDTNYNQKFKDKAKLTAVKSTSSAYMELSSLTNEDSAVYFCTREGIPQKLRTLDVWGQGTSVTVSS VL: DILMTQSPSSLSASLGERVSLTCRASQEISGYLSWLQEKPDGTIKRLIYAASTLDSGVPKRFSGSRSGSDYSLTISSLESEDFADYYCLQYLSYPWTFGGGTKLEIK | 2.07
9 | AB-7 full-length IgG1 (antibody, V domains shown) VH: EVQLEESGTVLARPGASVKMSCKASGYTFTSYWMHWIKQRPGQGLEWIGAIYPGNSDTNYNQKFKDKAKLTAVKSTSSAYMELSSLTNEDSAVYFCTREGIPQLLRSLDYWGQGTSVTVSS VL: DILMTQSPSSLSASLGERVSLTCRASQEISGYLSWLQEKPDGTIKRLIYAASTLDSGVPKRFSGSRSGSDYSLTISSLESEDFADYYCLQYLSYPWTFGGGTKLEIK | 2.55
